Measured values taken from patent publication US20160304615A1.

Assays:
[1] = target: EGFRvIII-mmh (human) (UniProt P00533); assay: SPR coinjection; competitor (first antibody): Control II
[2] = target: EGFRvIII-mmh (human) (UniProt P00533); assay: SPR coinjection; competitor (first antibody): Control III
[3] = target: full-length hEGFRvIII on cells (human) (UniProt P00533); assay: cell-based or functional assay
[4] = target: EGFRvIII-mFc (human); assay: SPR 37C, receptor-capture
[5] = target: EGFRvIII-mmh (human) (UniProt P00533); assay: SPR coinjection; competitor (first antibody): Control I
[6] = target: wild-type human EGFR on cells (human) (UniProt P00533); assay: FACS, A431 cells, PE secondary antibody
[7] = target: full-length hEGFRvIII on cells (human) (UniProt P00533); assay: FACS, HEK293/EGFRvIII cells, directly labeled antibody
[8] = target: EGFRvIII-mmh (human) (UniProt P00533); assay: SPR 37C, mAb-capture
[9] = target: EGFRvIII-mFc (human); assay: SPR 37C, mAb-capture
[10] = target: EGFRvIII-mmh (human) (UniProt P00533); assay: ELISA
[11] = target: C-terminal biotin-labeled EGFRvIII junctional peptide (human); assay: ELISA
[12] = target: N-terminal biotin-labeled EGFRvIII junctional peptide (human); assay: ELISA
[13] = target: EGFRvIII junctional peptide (human); assay: ELISA
[14] = target: EGFRvIII-mmh (human) (UniProt P00533); assay: SPR, captured hEGFRvIII-mmh; no first antibody
[15] = target: full-length hEGFRvIII on cells (human) (UniProt P00533); assay: FACS, HEK293/EGFRvIII cells, PE secondary antibody
[16] = target: EGFRvIII-mmh (human) (UniProt P00533); assay: SPR coinjection; competitor (first antibody): H1H1863N2(Fuc-)
[17] = target: wild-type human EGFR on cells (human) (UniProt P00533); assay: FACS, A431 cells, directly labeled antibody
[18] = target: EGFR-mFc (human); assay: SPR 37C, receptor-capture
[19] = target: EGFR-mmh (human) (UniProt P00533); assay: ELISA

Chain of Control III: Humanized anti-EGFRvIII antibody (hIgG1) with the variable domains of the "hu806" antibody of US 2010/0056762 (VH): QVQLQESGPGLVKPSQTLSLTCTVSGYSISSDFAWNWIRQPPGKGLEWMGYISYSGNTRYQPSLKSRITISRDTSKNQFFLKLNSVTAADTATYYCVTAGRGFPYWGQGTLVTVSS
Chain of Control III: Humanized anti-EGFRvIII antibody (hIgG1) with the variable domains of the "hu806" antibody of US 2010/0056762 (VL): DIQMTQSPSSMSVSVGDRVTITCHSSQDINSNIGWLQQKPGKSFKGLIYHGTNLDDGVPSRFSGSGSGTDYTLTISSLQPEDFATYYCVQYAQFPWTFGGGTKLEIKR

Row | Second Antibody Binding Response (RU) [1] [RU] | Second Antibody Binding Response (RU) [2] [RU] | Fluorescent Intensity of vesicles 4° C., Mean [3] | Fluorescent Intensity of vesicles 37° C., Mean [3] | Kd [4] [nM] | T½ [4] [h] | Second Antibody Binding Response (RU) [5] [RU] | A431 MFI [6] [MFI] | HEK293/EGFRvIII MFI [7] [MFI] | Kd [8] [nM] | T½ [8] [min] | Kd [9] [nM] | T½ [9] [min] | EC50 [10] [nM] | Second Antibody Binding Response (RU) [14] [RU] | HEK293/EGFRvIII MFI [15] [MFI] | Second Antibody Binding Response (RU) [16] [RU] | A431 MFI [17] [MFI] | Kd [18] [nM] | T½ [18] [min] | Substance | also measured
1 | 252 | 254 | 22000 | 264000 | 9.06 | 0.0483 | 5 | 1450 | 258000 | 1190 | 0.1 | 103 | 1.6 | 0.0094 | 234 | 272000 | 253 | 9650 |  |  | Control I: Human anti-EGFRvIII antibody (IgG1) with the variable domains of the "13.1.2" antibody of U.S. Pat. No. 7,736,644 | EC50 [11]: 0.0153 nM; EC50 [12]: 0.0106 nM; EC50 [13]: 0.118 nM
2 | 6 | 13 | 20300 | 615000 | 0.059 | 2.63 | 258 | 5580 | 313000 | 150 | 2 | 2.02 | 28 | 0.0057 | 247 | 313000 | 191 | 15700 | 0.329 | 79 | Control II: Chimeric anti-EGFRvIII antibody (hIgG1) with the variable domains of the "ch806" antibody of U.S. Pat. No. 7,589,180 | koff [18]: 0.000146 s⁻¹; kon [18]: 444000 M⁻¹ s⁻¹; koff [4]: 7.31e-05 s⁻¹; kon [4]: 1.25e+06 M⁻¹ s⁻¹; Fold Above Background [6]: 3.9 fold; Ratio (EGFRvIII MFI/parental MFI) [7]: 87.4; koff [8]: 0.00733 s⁻¹; kon [8]: 49000 M⁻¹ s⁻¹; koff [9]: 0.000408 s⁻¹; kon [9]: 202000 M⁻¹ s⁻¹; EC50 [19]: 0.0095 nM; Ratio (EGFRvIII MFI/parental MFI) [15]: 308; Fold Above Background [17]: 2.3 fold
3 |  |  |  |  | 0.00067 | 192 |  |  |  |  |  | 1.18 | 39 |  |  |  |  |  | 0.215 | 187 | Control III: Humanized anti-EGFRvIII antibody (hIgG1) with the variable domains of the "hu806" antibody of US 2010/0056762 | 
4 |  |  |  |  |  |  |  | 4240 |  | 82 | 1 | 1.95 | 31 |  |  | 997000 |  |  |  |  | Control V: Human anti-EGFRvIII antibody (IgG1) with the variable domains of the "131" antibody of U.S. Pat. No. 7,736,644 B2 | Fold Above Background [6]: 3 fold; koff [8]: 0.0159 s⁻¹; kon [8]: 194000 M⁻¹ s⁻¹; koff [9]: 0.000371 s⁻¹; kon [9]: 191000 M⁻¹ s⁻¹; Ratio (EGFRvIII MFI/parental MFI) [15]: 85
